From patent US8603987 (GALAXY BIOTECH, dated 2013)

B1: HuGAL-FR21 (antibody, human IgG1, kappa, V domains shown)
VH: QVQLVQSGAEVKKPGSSVKVSCKASGYIFTTYNVHWVRQAPGQGLEWIGSIYPDNGDTSYNQNFKGRATITADKSTSTAYMELSSLRSEDTAVYYCARGDFAYWGQGTLVTVSS
VL: DIQMTQSPSSLSASVGDRVTITCKASQGVSNDVAWYQQKPGKAPKLLIYSASYRYTGVPSRFSGSGSGTDFTFTISSLQPEDIATYYCQQHSTTPYTFGQGTKLEIKR
notes: Humanized IgG1, kappa; also called humanized GAL-FR21
B2: GAL-FR22 (antibody, V domains shown)
VH: QVQLKQSGPGLVQPSQSLSITCTVSGFSLTSFGVHWVRQSPGKGLEWLGVIWSGGSTDYNADFRSRLSISKDNSKSQIFFKMNSLQPDDTAIYYCANFYYGYDDYVMDYWGQGTSVTVSS
VL: DIQMTQSPSSLSASLGGRVTITCKASQDIKNYIAWYQHKPGKSPRLLIHYTSTLQPGVPSRFSGSGSGRDYSFSISNLEPEDIATYYCLQYDDLYMFGGGTKLDIK
notes: Mouse monoclonal antibody from a hybridoma; also called GAL-FG22; ATCC PTA-9587
B3: GAL-FR21 (antibody, V domains shown)
VH: QVQLQQPGAEVVKPGASVKMSCKASGYIFTTYNVHWVKQTPGQGLEWIGSIYPDNGDTSYNQNFKGKATLTADKSSSTAYIQLSSLTSEDSAVYYCARGDFAYWGQGTLVTVSV
VL: NIVMTQSPKSMSMSVGDRVSITCKASQGVSNDVAWYQKKPGQSPKLLIYSASYRYTGVPDRFTGSGSGTDFTFTISNVQAEDLAVYYCQQHSTTPYTFGGGTKLEIK
notes: Mouse monoclonal antibody from a hybridoma; also called mouse GAL-FR21; ATCC PTA-9586

Tests used:
[1] = biological target: T1, human FGFR2IIIb-Fc (alpha form, entire ECD amino acids 1-378 fused to human Fc) (human, UniProt P21802-3 22-378); assay: estimate from the 50% inhibition point of the competition ELISA on FGFR2IIIb-Fc against biotinylated GAL-FR21
T1 construct: range 1-378; Secreted from 293F cells and purified on protein A/G; not shown: human Fc, residues 216 to 446
Method: To compare the binding affinity of HuGAL-FR21 with that of the mouse mAb GAL-FR21, a competitive binding experiment was performed using standard ELISA technology. Specifically, ELISA wells were coated with 2 μg/ml of goat anti-human IgG-Fc overnight at 4° C. After blocking with 2% BSA for 1 hr at RT, the wells were incubated with 0.5 μg/ml of FGFR2IIIb-Fc. The wells were then incubated with biotinylated GAL-FR21 mAb (0.05 μg/ml) in the presence of increasing concentrations of unlabeled GAL-FR21, HuGAL-FR21 or control human antibody hIgG. The level of biotinylated GAL-FR21 bound was determined by the addition of HRP-streptavidin and substrate. […] HuGAL-FR21 may also be tested in any of the biological assays for FGFR2 activity described herein, e.g., inhibition of binding of FGF2 or FGF7 to FGFR2, and will inhibit FGFR2 activity comparably to GAL-FR21.

[2] = biological target: T2, FGFR2IIIc on transfected human 293F cells (UniProt P21802 22-821); assay: flow cytometry on 293F cells transfected with FGFRIIIc
T2 construct: whole, on cells; also called FGFRIIIc
Method: (§1) Flow cytometry. After washing twice in cell sorting buffer (CSB: PBS/1% FBS/0.02% NaN_3), 2×10^5 cells were resuspended in 50 µl of CSB in a microtiter well and incubated with 50 µl of the anti-FGFR2 mAb to be tested (1 µg/50 µl) for 1 hr on ice. Cells were then washed twice in CSB and the bound antibodies detected by incubation with FITC-goat anti-mouse IgG (Jackson ImmunoResearch Laboratories) for 1 hr on ice. After washing twice in CSB, cells were analyzed on a FACScan (Becton Dickinson).
(§2) To confirm that the selected mAbs bind to the appropriate forms of FGFR2 on the cell membrane, flow cytometry was employed. KATO-III (ATCC HTB-103) and SNU-16 (ATCC CRL-5974) cells, which overexpress FGFR2IIIb, were used to test binding to that form of the receptor. […] Human 293F cells transfected with a gene for FGFRIIIc were used to test binding to that form, after verifying that none of the mAbs bind to the host 293F cells themselves. […] Finally, since the S252W mutation of FGFR2 is found in some cancer cells, binding of the mAbs to 293F cells transfected with an FGFR2IIIb gene constructed to contain that mutation (FGFR2IIIb(S252W)) was tested. As also seen in FIG. 7, all the mAbs bound to the FGFR2IIIb(S252W)-transfected cells. The ability to bind FGFR2IIIb(S252W) is a preferred property of mAbs of the invention.

[3] = biological target: T3, FGFR2IIIb(S252W) on transfected human 293F cells (UniProt P21802-3 22-822); assay: flow cytometry on 293F cells transfected with FGFR2IIIb(S252W)
T3 construct: whole, on cells
Method: as §1, §2

[4] = biological target: T4, FGFR2IIIb on KATO-III and SNU-16 human gastric tumor cells (human, UniProt P21802-3 22-822); assay: flow cytometry on KATO-III and SNU-16 cells overexpressing FGFR2IIIb
T4 construct: whole, on cells; Endogenous receptor of human tumor cell lines; also called FGFR2IIIb on the cell membrane
Method: as §1, §2

[5] = biological target: T1, human FGFR2IIIb-Fc (alpha form, entire …); assay: ELISA, FGFR2IIIb-Fc captured by anti-human IgG-Fc
Method: (§3) To determine the ability of the mAbs to bind to FGFR2 from species other than human, ELISA assays were used. ELISA wells were coated with 2 µg/ml of goat anti-human IgG-Fc overnight at 4° C. After blocking with 2% BSA for 1 hr at RT, the wells were incubated with 0.2 µg/ml of FGFR2IIIb-Fc for 1 hr, where the FGFRIIIb in the fusion protein was either human, mouse, cynomolgus monkey or chimpanzee FGFRIIIb. The wells were then incubated with various concentrations of GAL-FR21 or GAL-FR22 mAb. The bound mAbs were detected by addition of HRP-conjugated goat anti-mouse IgG-Fc and then TMB substrate. […] A similar experiment with chimpanzee FGFR2 gave the same results as with cynomolgus monkey FGFR2: GAL-FR21 bound to chimpanzee FGFR2 as well as (indistinguishably from) human FGFR2, while GAL-FR22 bound to chimpanzee FGFR2 moderately well (within about 100-fold of human FGFR2). […] Binding to FGFR2 from such other species makes testing of the mAbs in those animal species easier to conduct.

[6] = biological target: T5, Chimpanzee FGFR2IIIb-Fc (human FGFR2IIIb ECD with residue 186 methionine to threonine, fused to human Fc) (chimpanzee; human, UniProt P21802-3 22-378); assay: ELISA, FGFR2IIIb-Fc captured by anti-human IgG-Fc
T5 construct: range 1-378; Built from the human FGFR2IIIb-Fc construct; also called chimp FGFR2IIIb; not shown: human Fc, residues 216 to 446
Method: as §3

[7] = biological target: T6, human FGFR2(beta)IIIb-Fc (amino acids 152-378, missing D1, fused to human Fc) (human, UniProt P21802-3 152-378); assay: ELISA on the four FGFR2-Fc forms, fixed mAb concentration
T6 construct: range 152-378; The signal peptide used for secretion of the beta form is not described; also called beta form of FGFR2IIIb; not shown: human Fc, residues 216 to 446
Method: ELISA assay for mAb binding to FGFR2 fusion protein. ELISA plates were coated with goat anti-human IgG-Fc (2 µg/ml) overnight at 4° C. Then nonspecific binding sites were blocked with 2% BSA for 1 hr at RT. Plates were incubated with one of the FGFR2 fusion proteins described above (1 µg/ml) for 1 hr, followed by incubation with various concentrations of mAbs or hybridoma culture fluids for 1 hr. The bound mAb was detected with HRP-Goat anti-mouse antibody followed by washing, addition of TMB substrate (Sigma) and reading at 450 nm. In all ELISA assays, plates were washed 3 times between each step.
Figure 3: FIG. 3. Binding ELISA of mAbs GAL-FR21, GAL-FR22 and GAL-FR23 and negative control mIgG to FGFR2IIIb. Figure 4: FIG. 4. Binding ELISA of mAbs GAL-FR21, GAL-FR22 and GAL-FR23 and negative control mouse mAb 5G8 to each of the four forms of FGFR2—FGFR2IIIb, FGFR2(beta)IIIb, FGFR2(IIIc) and FGFR2(beta)IIIc—as fusion proteins with Fc. A fixed concentration of each mAb was used in the assay.

T1 sequence (P21802 other isoform, or with tags, fused parts or gaps): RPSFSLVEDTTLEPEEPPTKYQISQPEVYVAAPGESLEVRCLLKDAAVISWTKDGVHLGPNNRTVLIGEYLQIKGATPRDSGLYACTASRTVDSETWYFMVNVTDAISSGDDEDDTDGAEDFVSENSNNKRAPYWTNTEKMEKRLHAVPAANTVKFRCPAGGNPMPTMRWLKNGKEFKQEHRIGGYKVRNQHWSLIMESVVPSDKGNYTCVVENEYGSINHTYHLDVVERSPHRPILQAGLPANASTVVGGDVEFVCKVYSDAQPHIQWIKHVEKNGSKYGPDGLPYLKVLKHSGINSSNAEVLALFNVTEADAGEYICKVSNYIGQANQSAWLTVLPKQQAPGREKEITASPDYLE
T4 sequence (P21802 other isoform, or with tags, fused parts or gaps): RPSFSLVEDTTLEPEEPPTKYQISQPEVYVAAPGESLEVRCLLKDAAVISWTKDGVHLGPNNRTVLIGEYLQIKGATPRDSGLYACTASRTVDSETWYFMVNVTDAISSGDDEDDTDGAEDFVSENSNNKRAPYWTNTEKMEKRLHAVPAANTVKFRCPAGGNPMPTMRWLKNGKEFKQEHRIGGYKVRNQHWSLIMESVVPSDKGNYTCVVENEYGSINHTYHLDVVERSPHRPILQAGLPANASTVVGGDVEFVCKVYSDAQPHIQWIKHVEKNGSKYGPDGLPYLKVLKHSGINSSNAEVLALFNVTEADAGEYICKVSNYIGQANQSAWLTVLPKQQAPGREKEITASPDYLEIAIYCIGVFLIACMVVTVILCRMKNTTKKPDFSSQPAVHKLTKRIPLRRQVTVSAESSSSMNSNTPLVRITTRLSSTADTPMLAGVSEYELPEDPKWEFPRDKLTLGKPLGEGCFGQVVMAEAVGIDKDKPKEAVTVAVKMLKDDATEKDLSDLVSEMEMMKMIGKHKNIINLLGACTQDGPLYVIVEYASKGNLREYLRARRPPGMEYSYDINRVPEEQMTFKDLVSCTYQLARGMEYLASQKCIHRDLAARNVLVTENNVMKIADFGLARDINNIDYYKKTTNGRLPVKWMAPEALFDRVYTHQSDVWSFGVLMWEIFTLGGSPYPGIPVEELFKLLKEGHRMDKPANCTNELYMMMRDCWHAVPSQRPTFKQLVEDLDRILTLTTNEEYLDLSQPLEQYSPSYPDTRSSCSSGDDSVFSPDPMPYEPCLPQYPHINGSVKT
T6 sequence (P21802 other isoform, or with tags, fused parts or gaps): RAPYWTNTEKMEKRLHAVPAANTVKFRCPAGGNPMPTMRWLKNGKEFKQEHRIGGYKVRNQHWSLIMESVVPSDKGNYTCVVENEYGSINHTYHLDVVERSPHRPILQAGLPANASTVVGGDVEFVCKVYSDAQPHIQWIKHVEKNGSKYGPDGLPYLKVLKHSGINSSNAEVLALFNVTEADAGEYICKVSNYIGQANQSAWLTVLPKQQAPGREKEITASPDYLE
T2 sequence (P21802 22-821): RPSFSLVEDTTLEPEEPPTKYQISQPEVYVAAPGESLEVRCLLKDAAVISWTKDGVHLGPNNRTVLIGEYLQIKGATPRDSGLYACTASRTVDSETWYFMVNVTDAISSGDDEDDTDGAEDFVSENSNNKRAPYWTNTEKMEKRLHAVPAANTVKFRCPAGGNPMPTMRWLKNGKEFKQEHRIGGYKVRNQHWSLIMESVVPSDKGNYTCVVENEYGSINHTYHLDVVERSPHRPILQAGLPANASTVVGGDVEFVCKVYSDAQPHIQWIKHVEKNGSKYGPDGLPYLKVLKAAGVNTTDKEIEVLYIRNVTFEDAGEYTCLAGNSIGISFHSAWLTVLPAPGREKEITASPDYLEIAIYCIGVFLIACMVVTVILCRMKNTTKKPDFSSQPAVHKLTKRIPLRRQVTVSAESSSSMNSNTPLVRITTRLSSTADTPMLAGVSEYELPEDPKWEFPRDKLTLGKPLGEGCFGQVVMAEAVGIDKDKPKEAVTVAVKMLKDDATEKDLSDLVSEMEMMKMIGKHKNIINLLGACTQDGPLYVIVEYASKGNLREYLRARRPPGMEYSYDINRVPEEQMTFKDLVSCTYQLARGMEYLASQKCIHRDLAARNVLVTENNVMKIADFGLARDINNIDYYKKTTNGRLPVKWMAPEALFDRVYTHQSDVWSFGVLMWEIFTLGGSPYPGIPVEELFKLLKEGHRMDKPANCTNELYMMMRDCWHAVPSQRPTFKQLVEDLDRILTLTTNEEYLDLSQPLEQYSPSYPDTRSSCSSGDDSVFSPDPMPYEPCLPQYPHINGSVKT
T3 sequence (P21802 other isoform, or with tags, fused parts or gaps S252W S252W): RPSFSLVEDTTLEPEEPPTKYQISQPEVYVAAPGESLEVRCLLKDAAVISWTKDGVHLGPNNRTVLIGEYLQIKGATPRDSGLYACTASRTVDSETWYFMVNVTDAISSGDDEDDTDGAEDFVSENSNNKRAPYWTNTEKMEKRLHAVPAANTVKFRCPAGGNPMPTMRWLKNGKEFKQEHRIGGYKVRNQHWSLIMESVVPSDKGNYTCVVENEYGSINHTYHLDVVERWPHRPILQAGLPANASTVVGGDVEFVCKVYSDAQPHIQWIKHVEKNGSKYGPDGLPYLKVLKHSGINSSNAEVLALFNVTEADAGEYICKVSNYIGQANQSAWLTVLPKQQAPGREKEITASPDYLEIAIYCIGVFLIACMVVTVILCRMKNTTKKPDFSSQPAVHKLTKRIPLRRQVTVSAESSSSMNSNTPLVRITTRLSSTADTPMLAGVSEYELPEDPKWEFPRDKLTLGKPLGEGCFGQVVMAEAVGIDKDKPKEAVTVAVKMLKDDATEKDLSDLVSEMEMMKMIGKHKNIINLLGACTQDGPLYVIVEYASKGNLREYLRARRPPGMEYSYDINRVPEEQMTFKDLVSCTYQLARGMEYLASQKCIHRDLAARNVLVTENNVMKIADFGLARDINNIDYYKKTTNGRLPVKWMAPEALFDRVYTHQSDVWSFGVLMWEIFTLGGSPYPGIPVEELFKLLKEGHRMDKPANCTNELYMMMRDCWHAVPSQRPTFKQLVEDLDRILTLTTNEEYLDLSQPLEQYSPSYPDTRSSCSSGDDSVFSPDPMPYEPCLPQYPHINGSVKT
T5 sequence (P21802 other isoform, or with tags, fused parts or gaps): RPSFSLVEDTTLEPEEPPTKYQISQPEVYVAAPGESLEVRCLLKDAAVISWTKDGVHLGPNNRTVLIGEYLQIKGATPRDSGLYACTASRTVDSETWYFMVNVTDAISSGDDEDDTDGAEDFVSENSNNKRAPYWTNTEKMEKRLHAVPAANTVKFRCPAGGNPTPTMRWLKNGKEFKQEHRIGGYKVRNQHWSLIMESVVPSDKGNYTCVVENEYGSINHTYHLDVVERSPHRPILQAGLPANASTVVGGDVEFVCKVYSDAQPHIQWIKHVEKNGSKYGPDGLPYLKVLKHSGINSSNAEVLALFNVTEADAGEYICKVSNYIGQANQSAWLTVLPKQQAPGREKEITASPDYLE

| Binder | Ka [1] | binding result [2] | binding result [3] | binding result [4] | binding result [5] | binding result [6] | binding result [7] |
| --- | --- | --- | --- | --- | --- | --- | --- |
| B1 | ≥ 1e+09 M⁻¹ | – | – | – | – | – | – |
| B2 | – | binds | binds | binds | binds | binds | binds |
| B3 | – | no binding (tested: 1 µg/50 µl) | binds | binds | binds | binds | binds |
